Data reported in US20240350583A1, “COMPOSITION FOR PREVENTING OR TREATING FIBROTIC DISEASES, COMPRISING HAPLN1” (Chung Ang University Industry Academic Cooperation …, priority 2021, published 2024).

Tests used:
[1] = may vary from cell to cell; related literature; cited from earlier work
[2] = system: SAEMyoF system (small airway epithelial cells and adult fibroblasts); assay: BioMAP Fibrosis panel, SAEMyoF system (pulmonary fibrosis model), ELISA; assay type: cell-based
Source text: The anti-fibrotic action effect of the composition of the present disclosure on pulmonary fibrosis and kidney fibrosis was verified by examining the expression level of various fibrosis markers using the BioMAP Fibrosis Panel (provided by Eurofins discovery).
BioMAP Fibrosis panel consists of three models, SAEMyoF system (co-culturing small airway epithelial cells and adult fibroblasts), REMyOF system (co-culture of renal proximal tubule epithelial cells and adult fibroblasts), and MyOF system (differentiated lung myofibroblasts). Here, the SAEMyoF system represents interstitial lung diseases (IDL), including pulmonary fibrotic diseases such as idiopathic pulmonary fibrosis (IPF), and the REMyOF system represents kidney fibrosis disease, which is associated with end-stage renal failure. However, experiments were conducted to confirm the effect of the MyoF system only on myofibroblasts.
(1) Each primary cell was used by pooling cells from multiple donors (n=3 to 6), and cells were first cultured in 96-well plates to confluence before adding a peripheral blood mononuclear cell (PBMC).
(2) Subsequently, the cells were then each treated with the composition of the present disclosure (rhHAPLN1 protein content of 0, 3.7, 11, and 33 ng/ml) at different concentrations and cultured for 1 hour.
(3) The plates were then treated with TNF and TGFβ1 and incubated for 48 hours.
(4) Direct enzyme-linked immunosorbent assay (ELISA) was performed on the expression levels of various biomarkers.
Each quantitative value was compared as a relative fold change compared to the vehicle control. Statistical processing was performed using unpaired t-test, significant differences vs vehicle control, *p<0.05, **p<0.01, and ***p<0.001.

[3] = system: bleomycin-induced pulmonary fibrosis (BIPF); assay: Bleomycin-induced pulmonary fibrosis mouse model, treatment (inhalation from day 8); assay type: in vivo
Procedure: An experiment was conducted to verify the effect of ameliorating bleomycin-induced pulmonary fibrosis (BIPF) already developed by repeatedly administering the composition of the present disclosure by inhalation to animals with pulmonary fibrosis. Here, experimental results are presented that are basically similar to Example 12, but bleomycin-induced pulmonary fibrosis (BIPF) was sufficiently generated 7 days after bleomycin treatment, and that the composition of the present disclosure has the ability to treat fibrotic diseases.
To establish a bleomycin-induced pulmonary fibrosis (PF) model, 8-week to 10-week-old female C57BL/6N mice were used, and divided into 4 groups (Normal, PBS Control, 0.00075% (w/w) rhHAPLN1, 0.0015% (w/w) rhHAPLN1), with 4 mice per group, and the IPF disease induction method was referred to the paper by Liu et al. (Methods in Molecular Biology 2017, DOI: 10.1007/978-1-4939-7113-8_2) (see FIG. 13A). […]
Starting 8 days after bleomycin administration, the control was a mixture of 50 μl of a stock solution consisting of 20 mM Tris-HCl, 0.5 M NaCl, pH 8.0, 50% glycerol and 10 ml PBS (1×, pH 7.4, Gibco Co.) solution. […] The weight of each experimental animal was measured every 2 days to confirm that there was no change in weight, and a mass dosing system and aerosol chamber (Data Science International Co., Ltd.) were used to generate the fog. […]
Next, three tissue slides were prepared per mouse by cutting the middle portion of the left large lobe of the mouse, and three sections were photographed randomly on one slide, and then, for a total of nine sections, the stained darker part was distinguished from the unstained white part, and the area of the stained darker part was measured using Image J software, and each figure obtained was averaged to obtain an average value per mouse. […]

| Molecule | effective doses in cells [1] | expression level of collagen I compared to vehicle control (FIG. 11A) ([2]; regardless of rhHAPLN1 content (3.7, 11, 33 ng/ml)) | expression level of αSMA, fold change compared to vehicle control (FIG. 11A) ([2]; regardless of rhHAPLN1 content (3.7, 11, 33 ng/ml), TNF and TGFβ1 48 hours) | expression level of collagen I, fold change compared to vehicle control (FIG. 11A) ([2]; rhHAPLN1 11 ng/ml) | H&E lung tissue form (FIG. 13B) ([3]; rhHAPLN1 0.0015% (w/w)) | reduction of average area of dark (fibrotic) lung area compared to pulmonary fibrosis without treatment (FIG. 13C) ([3]; rhHAPLN1 0.0015% (w/w), nebulized 1 hour once daily for 14 days from 8 days after bleomycin) | Ashcroft score evaluation (FIG. 13E) ([3]; rhHAPLN1 nebulized from 8 days after bleomycin) |
| --- | --- | --- | --- | --- | --- | --- | --- |
| Cc1ccc(=O)n(-c2ccccc2)c1 [pirfenidone, reference compound] | ≥ 100 µg/mL |  |  |  |  |  |  |
| rhHAPLN1: recombinant human HAPLN1 protein of SEQ ID NO: 1 produced in CHO-K1 cells, stabilized in acetic acid buffer, sucrose, PS80, pH 5.0 (protein, listed as Homo sapiens) MKSLLLLVLISICWADHLSDNYTLDHDRAIHIQAENGPHLLVEAEQAKVFSHRGGNVTLPCKFYRDPTAFGSGIHKIRIKWTKLTSDYLKEVDVFVSMGYHKKTYGGYQGRVFLKGGSDSDASLVITDLTLEDYGRYKCEVIEGLEDDTVVVALDLQGVVFPYFPRLGRYNLNFHEAQQACLDQDAVIASFDQLYDAWRGGLDWCNAGWLSDGSVQYPITKPREPCGGQNTVPGVRNYGFWDKDKSRYDVFCFTSNFNGRFYYLIHPTKLTYDEAVQACLNDGAQIAKVGQIFAAWKILGYDRCDAGWLADGSVRYPISRPRRRCSPTEAAVRFVGFPDKKHKLYGVYCFRAYN |  | consistently significantly reduced | ≤ 0.9 fold | ≤ 0.8 fold | quite similar to that of the normal group | 51% | excellent therapeutic effect |
